Holding throughout (conditions): tags: endogenous on A431 cells (ATCC CRL-1555)
For data set [1], the target named is T1, EGFR (epidermal growth factor receptor) (Homo sapiens, UniProt P00533 P00533:25-1210). As to the kind of experiment: flow. Here is the method: (§1) A secondary phycoerythrin labelled anti-human IgG antibody was used to detect binding of alpha-galactosyl IgG antibody to the compound.
(§2) A431 cells (ATCC CRL-1555) were harvested and resuspended at 5×10⁶ cells/mL in phosphate buffered saline (PBS) (Sigma D8662)+0.1% BSA (Bovine Serum Albumin-Sigma A2153)+0.1 mg/mL Yeast t-RNA (Invitrogen 15401-011)+5 mM MgCl₂ (Sigma M1028) and incubated on ice for 30 minutes to block. 5×10⁵ cells were then incubated with compound at various concentrations as described below or buffer alone at room temperature, shaking at 450 rpm for 1 hour. The cells were washed with 3×200 μL PBS+0.1% BSA, prior to adding 50 μL of Anti-alpha galactosyl IgG antibody (custom purification from human IVIG, Rockland Immunochemicals, Inc.) at 45 μg/mL in PBS+0.1% BSA and incubating at 4° C. for 1 hour. […] After a final wash of 3×200 μL PBS+0.1% BSA the cells were resuspended in 200 μL PBS+0.1% BSA and evaluated on a flow cytometer (FC500 Beckman Coulter). Data from all samples were analysed in the Kaluza software package (Beckman Coulter).
(§3) The fold shift over background was calculated by dividing the Mean Fluorescence Intensity (MFI) obtained in the presence of 10 nM or 1 μM alphamer by the Mean Fluorescence Intensity (MFI) obtained in the absence of alphamer. […]

The target of data set [2] is T1, EGFR (epidermal growth factor receptor). As to the kind of experiment: flow; at 1 uM (6.4 at 10 nM); same conditions. Here is the method:
as §1, §2, §3

The target is the same in data set [3]. As to the kind of experiment: flow; at 1 uM (5.5 at 10 nM); same conditions. How it is done: as §1, §2, §3
For data set [4] the target is unchanged. As to the kind of experiment: flow; at 1 uM (4.2 at 10 nM); same conditions. Here is the method:
as §1, §2, §3

Data set [5] has the same target. As to the kind of experiment: flow; at 1 uM (5.7 at 10 nM); same conditions. How it is done:
as §1, §2, §3

Data set [6] has the same target. The data set is described as follows: flow; at 1 uM (6.5 at 10 nM); same conditions. How it is done:
as §1, §2, §3

For data set [7] the target is unchanged. The data set is described as follows: flow; at 1 uM (5.9 at 10 nM); same conditions. Here is the method: as §1, §2, §3
Data set [8] shares this target. As to the kind of experiment: flow; at 1 uM (7.0 at 10 nM); same conditions. How it is done:
as §1, §2, §3

The target is the same in data set [9]. As to the kind of experiment: flow; at 1 uM (5.8 at 10 nM); same conditions. How it is done:
as §1, §2, §3

The target is the same in data set [10]. The data set is described as follows: flow; at 1 uM (2.5 at 10 nM); same conditions. How it is done: as §1, §2, §3
Data set [11] has the same target. The data set is described as follows: flow; at 1 uM (3.8 at 10 nM); same conditions. How it is done: as §1, §2, §3
The target is the same in data set [12]. As to the kind of experiment: flow; at 1 uM (7.1 at 10 nM); same conditions. Here is the method:
as §1, §2, §3

14 molecules from US20210369850, “COMPOUNDS AND […] USES […]” (CENTAURI THERAPEUTICS LIMITED, published 2021) can be followed below.

GGGAUUUAAUCGCCGUAGAAAAGCAUGUCAAAGCCGGAACCC (ssRNA, as N22 but 5' alpha-Gal moiety from Preparation 90) [RNA aptamer conjugate 4 (Example 26)] registered a binding signal in data set [1] of 3.3 fold MFI over background.

The molecule GGGAUUUAAUCGCCGUAGAAAAGCAUGUCAAAGCCGGAACCC (ssRNA, as N22 but 5' alpha-Gal moiety from Preparation 97) [RNA aptamer conjugate 15 (Example 37)] registered a binding signal in data set [2] of 12.2 fold MFI over background.

In data set [3], GGGAUUUAAUCGCCGUAGAAAAGCAUGUCAAAGCCGGAACCC (ssRNA, as N22 but 5' alpha-Gal moiety from Preparation 83) [RNA aptamer conjugate 8 (Example 30)] displayed a binding signal of 10.5 fold MFI over background.

GGGAUUUAAUCGCCGUAGAAAAGCAUGUCAAAGCCGGAACCC (ssRNA, as N22 but 5' alpha-Gal moiety from Preparation 96) [RNA aptamer conjugate 13 (Example 35)]: the binding signal in [2] worked out at 12.3 fold MFI over background.

As to GGGAUUUAAUCGCCGUAGAAAAGCAUGUCAAAGCCGGAACCC (ssRNA, as N22 but 5' alpha-Gal moiety from Preparation 91) [RNA aptamer conjugate 12 (Example 34)], the binding signal in data set [4] worked out at 7.6 fold MFI over background.

GGGAUUUAAUCGCCGUAGAAAAGCAUGUCAAAGCCGGAACCC (ssRNA, as N22 but 5' alpha-Gal moiety from Preparation 89) [RNA aptamer conjugate 10 (Example 32)] yielded a binding signal in [5] of 10.4 fold MFI over background.

In turn, GGGAUUUAAUCGCCGUAGAAAAGCAUGUCAAAGCCGGAACCC (ssRNA, as N22 but 5' alpha-Gal moiety from Preparation 92) [RNA aptamer conjugate 17 (Example 39)] gave a binding signal in [6] of 10.4 fold MFI over background.

For GGGAUUUAAUCGCCGUAGAAAAGCAUGUCAAAGCCGGAACCC (ssRNA, as N22 but 5' alpha-Gal moiety from Preparation 88) [RNA aptamer conjugate 11 (Example 33)], the binding signal in data set [7] was found to be 11 fold MFI over background.

Consider GGGAUUUAAUCGCCGUAGAAAAGCAUGUCAAAGCCGGAACCC (ssRNA, as N22 but 5' alpha-Gal moiety from Preparation 98) [RNA aptamer conjugate 16 (Example 38)], for which, in data set [8], the binding signal stood at 13.6 fold MFI over background.

For the molecule GGGAUUUAAUCGCCGUAGAAAAGCAUGUCAAAGCCGGAACCC (ssRNA, as N22 but 5' alpha-Gal moiety from Preparation 87) [RNA aptamer conjugate 9 (Example 31)], the binding signal in [9] came to 12.5 fold MFI over background.

With GGGAUUUAAUCGCCGUAGAAAAGCAUGUCAAAGCCGGAACCC (ssRNA, as N22 but 5' alpha-Gal moiety from Preparation 85) [RNA aptamer conjugate 5 (Example 27)], the binding signal in data set [10] was 4.1 fold MFI over background.

In [11], GGGAUUUAAUCGCCGUAGAAAAGCAUGUCAAAGCCGGAACCC (ssRNA, as N22 but 5' alpha-Gal moiety from Preparation 84) [RNA aptamer conjugate 7 (Example 29)] gave a binding signal of 8.2 fold MFI over background.

In data set [4], GGGAUUUAAUCGCCGUAGAAAAGCAUGUCAAAGCCGGAACCC (ssRNA, as N22 but 5' alpha-Gal moiety from Preparation 86) [RNA aptamer conjugate 6 (Example 28)] registered a binding signal of 8.1 fold MFI over background.

In data set [12], GGGAUUUAAUCGCCGUAGAAAAGCAUGUCAAAGCCGGAACCC (ssRNA, as N22 but 5' alpha-Gal moiety from Preparation 95) [RNA aptamer conjugate 14 (Example 36)] came in with a binding signal of 12.4 fold MFI over background.
